Patent US20020160955A1 (published 2002)

Tests used:
Assay in all cases: competitive phage ELISA
[1] = target: T1, IGF-I S69A (G1S-A70V background) displayed on phage (human; bacteriophage M13, UniProt P69168 267-424)
T1 chain: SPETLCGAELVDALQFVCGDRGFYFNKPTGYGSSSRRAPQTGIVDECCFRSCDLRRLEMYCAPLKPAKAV
Summary of the method: (§1)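 Phage, normalized to a maximal ELISA signal of 0.2-0.4 per mutant, were premixed with threefold serial dilutions of soluble competitor in 0.5% Tween 20/PBS and incubated 1 h at room temperature on immobilized target.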

[2] = target: T2, IGF-I R50A (G1S-A70V background) displayed on phage (human; bacteriophage M13)
T2 construct: monovalent M13 phage display
T2 chain: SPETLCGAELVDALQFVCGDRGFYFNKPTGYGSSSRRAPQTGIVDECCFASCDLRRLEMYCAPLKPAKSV
Summary of the method: as §1

[3] = target: T3, IGF-I G1S-A70V displayed on phage (human; bacteriophage M13)
T3 construct: monovalent M13 phage display; template of the alanine scan; also called G1S-A70V IGF-I; wild-type-like IGF-I variant; not shown: M13 gene III fragment (residues 249-406, display partner) and the junction to it
Summary of the method: as §1

[4] = target: T4, IGF-I T29A (G1S-A70V background) displayed on phage (human; bacteriophage M13)
T4 construct: monovalent M13 phage display; not shown: M13 gene III fragment (residues 249-406, display partner) and the junction to it
T4 chain: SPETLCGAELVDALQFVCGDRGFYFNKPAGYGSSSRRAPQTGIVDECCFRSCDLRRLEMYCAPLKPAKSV
Summary of the method: as §1

[5] = target: T5, IGF-I I43A (G1S-A70V background) displayed on phage (human; bacteriophage M13)
T5 construct: monovalent M13 phage display
T5 chain: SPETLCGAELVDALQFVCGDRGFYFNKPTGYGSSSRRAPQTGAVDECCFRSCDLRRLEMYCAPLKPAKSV
Summary of the method: as §1

[6] = target: T6, wild-type IGF-I displayed on phage (human; bacteriophage M13, UniProt P69168 267-424)
T6 construct: range 249-406; monovalent M13 phage display; also called IGF-I WT; double-mutation restoring wild-type IGF-I
Summary of the method: as §1

[7] = target: T7, IGF-I M59A (G1S-A70V background) displayed on phage (human; bacteriophage M13)
T7 construct: monovalent M13 phage display; not shown: M13 gene III protein fragment (residues 249-406), the phage display carrier, and its junction to IGF-I
T7 chain: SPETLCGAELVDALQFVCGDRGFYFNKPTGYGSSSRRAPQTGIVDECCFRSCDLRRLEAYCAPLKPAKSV
Summary of the method: as §1

[8] = target: T8, IGF-I S33A (G1S-A70V background) displayed on phage (human; bacteriophage M13)
T8 construct: monovalent M13 phage display; not shown: M13 gene III fragment (residues 249-406, display partner) and the junction to it
T8 chain: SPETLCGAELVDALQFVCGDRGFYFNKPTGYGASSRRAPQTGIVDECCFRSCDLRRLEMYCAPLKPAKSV
Summary of the method: as §1

B1: human IGFBP-1 (other, UniProt P08833 26-259, looked up)
chain: APWQCAPCSAEKLALCPPVSASCSEVTRSAGCGCCPMCALPLGAACGVATARCARGLSCRALPGEQQPLHALTRGQGACVQESDASAPHAAEAGSPESPESTEITEEELLDNFHLMAPSEEDHSILWDAISTYDGSKALHVTNIKKWKEPCRIELYRVVESLAKAQETSGEEISKFYLPNCNKNGFYHSRQCETSMDGEAGLCWCVYPWNGKRIPGSPEIRGDPNCQIYFNVQN
notes: secreted recombinant protein purified from conditioned medium
- IC50 [1]: 12.8 nM
- IC50 [2]: 16.2 nM
- IC50 [3]: 8.2 nM
- IC50 [4]: 7.3 nM
- IC50 [5]: 31.3 nM
- IC50 [6]: 8.4 nM
- IC50 [7]: 13.1 nM
- IC50 [8]: 9.1 nM
